Reference: paper PMC11931385, “Structural and functional analysis of cancer-associated missense variants in the retinoblastoma protein pocket domain” (The Journal of Biological Chemistry, 2025)
Positions count from the first letter of the chain named. Numbers in names are those of the source. No end group written: not given here. TMR = tetramethyl rhodamine dye

Assays:
Conditions in all cases: both partners purified
Rb^P M761L = target: T1, Rb^P M761L (human, UniProt P06400 380-788, M761L); assay: fluorescence polarisation; 25 °C; unlabeled Rb^P titrated against 1.5 nM TMR-E2F1^TD or 7.5 nM TMR-E7^LxCxE; 25 mM Tris pH 8.0, 200 mM NaCl, 1 mM DTT, 0.1% Tween-20; 2 min incubation; quadratic fit; apparent Kd for the variants, Kd for WT
T1 construct: also called variant 74
T1 sequence (looked up): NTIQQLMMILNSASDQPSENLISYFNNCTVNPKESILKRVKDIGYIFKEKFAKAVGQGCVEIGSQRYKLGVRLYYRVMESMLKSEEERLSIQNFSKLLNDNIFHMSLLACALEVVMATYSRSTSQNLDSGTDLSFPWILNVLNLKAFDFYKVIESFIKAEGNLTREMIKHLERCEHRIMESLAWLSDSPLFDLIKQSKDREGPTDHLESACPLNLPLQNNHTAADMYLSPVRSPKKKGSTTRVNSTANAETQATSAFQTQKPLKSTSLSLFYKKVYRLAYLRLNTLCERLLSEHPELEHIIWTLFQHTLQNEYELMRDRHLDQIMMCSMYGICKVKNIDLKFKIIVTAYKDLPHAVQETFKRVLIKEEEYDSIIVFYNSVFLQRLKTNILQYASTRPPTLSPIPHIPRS

Rb^P T638S = target: T2, Rb^P T638S (human, UniProt P06400 380-788, T638S); assay: fluorescence polarisation; 37 °C, after the 25 °C reading ramped over 7 min to 37 °C and 2 min incubation; unlabeled Rb^P against 1.5 nM TMR-E2F1^TD or 7.5 nM TMR-E7^LxCxE; 25 mM Tris pH 8.0, 200 mM NaCl, 1 mM DTT, 0.1% Tween-20; apparent Kd
T2 construct: also called variant 45
T2 sequence (looked up): T1 sequence (looked up) with T259S, L382M

Rb^P R668C = target: T3, Rb^P R668C (human, UniProt P06400 380-788, R668C); assay: as above
T3 construct: also called variant 51
T3 sequence (looked up): T1 sequence (looked up) with R289C, L382M

Rb^P R668H = target: T4, Rb^P R668H (human, UniProt P06400 380-788, R668H); assay: as above
T4 construct: also called variant 52
T4 sequence (looked up): T1 sequence (looked up) with R289H, L382M

Rb^P I703F = target: T5, Rb^P I703F (human, UniProt P06400 380-788, I703F); assay: as above
T5 construct: also called variant 64
T5 sequence (looked up): T1 sequence (looked up) with I324F, L382M

B1: TMR-E2F1^TD, peptide of the E2F1 transactivation domain (peptide)
peptide: {TMR}-GEGIRDLFDCDFGDLTPLD
notes: also called E2F^TD; source: synthetic peptide, bought: GenScript
B1 gave a Kd (Rb^P M761L) of 32 nM, a Kd (Rb^P T638S) of 38 nM and a Kd (Rb^P R668C) of 25 nM. The Kd (Rb^P R668H) was 22 nM and the Kd (Rb^P I703F) was 396 nM.

B2: TMR-E7^LxCxE, LxCxE peptide of the E7 oncoprotein from HPV (peptide)
peptide: DLYCYEQLN
modifications: also: TMR label, position not given here
notes: source: synthetic peptide, bought: GenScript
B2 was tested, and the Kd (Rb^P M761L) was 1.3 nM, the Kd (Rb^P T638S) was 14 nM and the Kd (Rb^P R668C) was 16 nM. For the same binder, the Kd (Rb^P R668H) was 28 nM and the Kd (Rb^P I703F) was 275 nM.
